Assay results from the Human Domainome abundance scans (Beltran et al. 2025).
± gives the uncertainty stated by the source.

B1: Transcription factor SOX-11, residues 50 to 117; numbered along this chain, P35716 (parent)
chain: KRPMNAFMVWSKIERRKIMEQSPDMHNAEISKRLGKRWKMLKDSEKIPFIREAERLRLKHMADYPDYK

Variants of: B1
Assay: abundance fitness (aPCA) (normalised: wild type 0, dead -1); higher = more abundant; growth selection in yeast, the domain comes from the species named
Settings: Homo sapiens

Going from M4F to M4H, the abundance fitness falls from -0.186 ± 0.053 to -0.423 ± 0.086.

Compared with N5R, N5L is higher in abundance fitness: -0.852 ± 0.11 for the first, -0.65 ± 0.075 for the second.

First: N5D
Second: N5M
The abundance fitness of the first is higher: 0.147 ± 0.055 for the first, -0.724 ± 0.15 for the second.

N5P and N5H are within error of each other in abundance fitness: -0.544 ± 0.089 for the first, -0.621 ± 0.09 for the second.

First: N5T
Second: N5K
The abundance fitness of the first is higher: 0.149 ± 0.056 for the first, -0.956 ± 0.26 for the second.

First: N5Q
Second: N5S
The abundance fitness of the first is lower: -0.831 ± 0.27 for the first, 0.104 ± 0.045 for the second.

Compared with N5E, N5Y is lower in abundance fitness: -0.172 ± 0.16 for the first, -0.524 ± 0.061 for the second.

Going from N5F to N5W, the abundance fitness rises from -0.712 ± 0.08 to -0.438 ± 0.13.

N5A and N5V are within error of each other in abundance fitness: -0.474 ± 0.096 for the first, -0.491 ± 0.069 for the second.

Compared with N5G, N5I is lower in abundance fitness: -0.433 ± 0.069 for the first, -0.601 ± 0.071 for the second.

First: N5C
Second: E14S
The abundance fitness of the first is higher: -0.321 ± 0.064 for the first, -0.488 ± 0.067 for the second.

Going from E14V to E14N, the abundance fitness rises from -0.895 ± 0.084 to -0.338 ± 0.089.

E14I and E14A are within error of each other in abundance fitness: -0.722 ± 0.11 for the first, -0.615 ± 0.076 for the second.

E14P and E14H are within error of each other in abundance fitness: -0.739 ± 0.22 for the first, -0.577 ± 0.13 for the second.

First: E14Y
Second: E14L
The abundance fitness of the first is higher: -0.696 ± 0.11 for the first, -1.05 ± 0.14 for the second.

E14W and E14D are within error of each other in abundance fitness: -0.734 ± 0.45 for the first, -0.861 ± 0.12 for the second.

First: E14Q
Second: E14K
The abundance fitness of the first is higher: -0.247 ± 0.19 for the first, -0.953 ± 0.41 for the second.

E14M and E14C are within error of each other in abundance fitness: -0.352 ± 0.17 for the first, -0.533 ± 0.11 for the second.

E14F and E14G are within error of each other in abundance fitness: -0.645 ± 0.088 for the first, -0.771 ± 0.089 for the second.

Compared with E14T, M8V is higher in abundance fitness: -1.16 ± 0.2 for the first, -0.131 ± 0.062 for the second.

Compared with M8W, M8Q is higher in abundance fitness: -0.446 ± 0.18 for the first, 0.324 ± 0.083 for the second.

Compared with M8K, M8C is higher in abundance fitness: -0.394 ± 0.16 for the first, -0.168 ± 0.061 for the second.

Compared with M8L, M8T is higher in abundance fitness: -0.039 ± 0.047 for the first, 0.165 ± 0.062 for the second.

M8H and M8F are within error of each other in abundance fitness: -0.033 ± 0.059 for the first, -0.14 ± 0.051 for the second.

First: M8D
Second: M8G
The abundance fitness of the first is higher: 0.456 ± 0.069 for the first, -0.079 ± 0.067 for the second.

Going from M8I to M8P, the abundance fitness falls from -0.117 ± 0.047 to -0.609 ± 0.09.

Going from M8R to M8N, the abundance fitness rises from -0.239 ± 0.069 to -0.111 ± 0.054.

M8A and M8E are within error of each other in abundance fitness: 0.101 ± 0.068 for the first, 0.299 ± 0.15 for the second.

Compared with M8Y, W10K is lower in abundance fitness: -0.089 ± 0.051 for the first, -0.627 ± 0.23 for the second.

W10G and W10D are within error of each other in abundance fitness: -0.797 ± 0.14 for the first, -0.781 ± 0.14 for the second.

W10H and W10I are within error of each other in abundance fitness: -0.783 ± 0.11 for the first, -0.961 ± 0.099 for the second.

Going from W10C to W10Y, the abundance fitness rises from -1.01 ± 0.14 to -0.375 ± 0.065.

W10S and W10L are within error of each other in abundance fitness: -0.913 ± 0.1 for the first, -0.819 ± 0.095 for the second.

W10N and W10P are within error of each other in abundance fitness: -0.594 ± 0.079 for the first, -0.589 ± 0.13 for the second.

First: W10M
Second: W10Q
The abundance fitness of the first is higher: -0.345 ± 0.14 for the first, -1.09 ± 0.33 for the second.

First: W10A
Second: W10F
The abundance fitness of the first is lower: -0.543 ± 0.12 for the first, -0.253 ± 0.054 for the second.

Going from W10V to W10T, the abundance fitness rises from -0.872 ± 0.13 to -0.576 ± 0.097.

F7P and F7L are within error of each other in abundance fitness: -0.967 ± 0.16 for the first, -0.958 ± 0.12 for the second.

F7G and F7A are within error of each other in abundance fitness: -0.765 ± 0.12 for the first, -0.75 ± 0.12 for the second.

Going from F7R to F7H, the abundance fitness falls from -0.478 ± 0.082 to -0.879 ± 0.12.

Going from F7W to F7E, the abundance fitness falls from -0.018 ± 0.17 to -0.689 ± 0.32.

First: F7Q
Second: F7Y
The abundance fitness of the first is lower: -0.476 ± 0.21 for the first, -0.203 ± 0.059 for the second.
